Target: the molecule itself
Experiment: SEC-MALS

B1: SbnA (wild type, Staphylococcus aureus strain Newman) (enzyme, UniProt A6QDA0 1-326, looked up)
chain: MIEKSQACHDSLLDSVGQTPMVQLHQLFPKHEVFAKLEYMNPGGSMKDRPAKYIIEHGIKHGLITENTHLIESTSGNLGIALAMIAKIKGLKLTCVVDPKISPTNLKIIKSYGANVEMVEEPDAHGGYLMTRIAKVQELLATIDDAYWINQYANELNWQSHYHGAGTEIVETIKQPIDYFVAPVSTTGSIMGMSRKIKEVHPNAQIVAVDAKGSVIFGDKPINRELPGIGASRVPEILNRSEINQVIHVDDYQSALGCRKLIDYEGIFAGGSTGSIIAAIEQLITSIEEGATIVTILPDRGDRYLDLVYSDTWLEKMKSRQGVKSE
modifications: PLP (pyridoxal 5'-phosphate) covalently bound to Lys47 by an internal Schiff base (as isolated)
  stoichiometry N: 2

Source: article PMC5084695 (Biochemistry, 2016)
